# Patent US20140357838A1, “N-Terminally Modified Insulin Derivatives” (Novo Nordisk A/S, priority 2011, published 2014)
# Starred links: 1 amine or outer side, 2 acyl side, 3 side chain; linkers in the order of their positions; H or OH if unused. Positions of bridges follow the written chain, without caps; N, C: chain ends. Groups on a side chain read outwards from the residue. Chains are numbered I, II in the order given. No end group written: not given here. *: point of attachment. Phe(Nα-CONH2) = NC(=O)N[C@@H](Cc1ccccc1)C(=O)*; C20 diacid = O=C(O)CCCCCCCCCCCCCCCCCCC(=O)*; C18 diacid = O=C(O)CCCCCCCCCCCCCCCCC(=O)*; NMe2Phe = CN(C)[C@@H](Cc1ccccc1)C(=O)*; γGlu = O=C(O)[C@H](CCC(=O)[*:2])N[*:1]; Hydantoyl = NC(=O)NCC(=O)*; AEEA = NCCOCCOCC(=O)O; Me2Gly = CN(C)CC(=O)*
# Tests used:
# human insulin receptor [1] = molecular target: T1, human insulin receptor (Homo sapiens, UniProt P06213); assay: Insulin receptor affinity, SPA assay with […] HSA in binding buffer; conditions: relative to the affinity of human insulin
# Procedure: (§1) SPA-PVT antibody-binding beads, anti-mouse reagent (Amersham Bio-sciences, Cat No. PRNQ0017) are mixed with 25 ml of binding buffer (100 mM HEPES pH 7.8; 100 mM sodium chloride, 10 mM MgSO4, 0.025% Tween-20). […] A total of 100 μl reagent mix is then added to each well in the Packard Optiplate and a dilution series of the N-terminally modified insulin is made in the Optiplate from appropriate samples. The samples are then incubated for 16 hours while gently shaken. The phases are the then separated by centrifugation for 1 min and the plates counted in a Topcounter.
# human insulin receptor [2] = molecular target: T1, human insulin receptor; assay: Insulin receptor affinity, SPA antibody capture assay (0% HSA); format: binding; conditions: relative to the affinity of human insulin
# Procedure: as §1
# [3] = Hydrophobicity by isocratic reverse phase HPLC; format: physicochemical; conditions: k'rel, isocratic RP-HPLC, pH 7.3, human insulin = 1
# Procedure: The hydrophobicity of an N-terminally modified insulin is found by reverse phase HPLC run under isocratic conditions. […] The hydrophobicity, k′rel, is calculated as: k′relderiv=((tderiv−t0)(tref−t0)*k′relref. Using HI as reference: k′relref=k′relHI=1. The void time of the HPLC system, t0, is determined by injecting 5 μl of 0.1 mM NaNO3. Running conditions:
# Column: Lichrosorb RP-C18, 5 μm, 4×250 mm
# Buffer A: 0.1 M natrium phosphate pH 7.3, 10 vol % CH3CN
# After running an initial gradient, the isocratic level for running the derivative and reference (for example HI) is chosen, and the elution times of the derivative and reference under isocratic conditions are used in the above equation to calculate k′relderiv.
# duodenum lumen enzymes = assay: Degradation of insulin analogs using duodenum lumen enzymes; format: in vitro ADME; conditions: rat duodenum lumen enzymes, 100 mM Hepes pH 7.4, 37° C.; degradation half time divided by that of reference insulin
# Procedure: Degradation of insulin analogs using duodenum lumen enzymes (prepared by filtration of duodenum lumen content) from SPD rats. The assay is performed by a robot in a 96 well plate (2 ml) with 16 wells available for insulin analogs and standards. Insulin analogs ˜15 μM are incubated with duodenum enzymes in 100 mM Hepes, pH=7.4 at 37° C., samples are taken after 1, 15, 30, 60, 120 and 240 min and reaction quenched by addition of TFA. Intact insulin analogs at each point are determined by RP-HPLC. […] The amount of enzymes added for the degradation is such that the half time for degradation of the reference insulin is between 60 min and 180 min.
# [4] = Chemical stability of insulin derivatives in 2 mM phosphate (SEC-HPLC and RP-HPLC); format: physicochemical; conditions: 4 weeks 37° C. minus 5° C. start sample; for HMWP Formation (%) (4 weeks 37° C.- 0 weeks 5° C.): pH 7.5, SEC-HPLC
# Procedure: Chemical stability of an insulin derivative is assessed after incubating insulin derivative in 2 mM phosphate, pH=7.5 at 37° C. for up to 8 weeks. Formation of high molecular weight products (HMWP) is determined by SEC HPLC analysis after 0, 2, 4 and optionally 8 weeks. The results of the SEC method are given as a difference between HMWP formation at 37° C. and 5° C. start sample as a percentage of total absorbance at 215 nm. Chemical degradation products are determined by RP HPLC analysis after 0, 2, 4 and optionally 8 weeks. The results of the RP method are given as a difference between chemical degradation observed at 37° C. and 5° C. start sample as a percentage of total absorbance at 215 nm.
# • Solvent: 500 mM NaCl, 10 mM NaH2PO4, 5 mM H3PO4, 50% (v/v) 2-propanol • Flow: 0.5 ml/min • Run time: 30 min • UV Detection: 215 nm • Column: Insulin HMWP column from Waters 7.8×300 mm • Temperature: 50° C.
# • Solvent A: 0.09M phosphate buffer pH 3.6 (di-ammoniumhydrogenphosphate), 10% MeCN (v/v) • Solvent B: 80% MeCN (v/v %) • Flow: 0.3 ml/min • Runtime: 33 min • UV Detection: 215 nm • Column: Waters Acquity BEH130 C18 Column 1.7 μm, 150×2.1 mm • Temperature: 50° C. • Gradient: […]
# [5] = Thioflavin T (ThT) fibrillation assay; format: physicochemical; conditions: same experiment as prior art derivatives, 37° C., 960 rpm, pH 7.4, mean ± SD
# Source text: This has traditionally been measured by visual inspection of the sample. However, that kind of measurement is very subjective and depending on the observer. Therefore the application of a small molecule indicator probe is much preferred. […] The time course for fibril formation can be described by a sigmoidal curve with the following expression (Nielsen at al. Biochemistry 40, 6036-6046, 2001):
# Here, F is the ThT fluorescence at the time t. The constant t0 is the time needed to reach 50% of maximum fluorescence. The two important parameters describing fibril formation are the lag-time calculated by t0-2[…] and the apparent rate constant kapp=1/{tilde over (□)}.
# Samples were prepared freshly before each assay. Each analog was dissolved in 2 mM sodium phosphate, pH=7.4. Thioflavin T was added to the samples from a stock solution in water to a final concentration of 1 μM. Sample aliquots of 200 μl were placed in a 96 well microtiter plate (Packard Optiplate™-96, white polystyrene). Usually four replica of each sample (corresponding to one test condition) were placed in one column of wells. The plate was sealed with Scotch Pad (Qiagen).
# Incubation at given temperature, shaking and measurements of the ThT fluorescence emission were done in either a Fluoroskan Ascent FL or Varioskan fluorescence plate reader (thermo Labsystems). The temperature was adjusted to 37° C. […] Fluorescence measurements were done using excitation through a 444 nm filter and measurement of emission through a 485 nm filter.
# Each run was initiated by incubating the plate at the assay temperature for 10 min. The plate was measured every 20 minutes for typically 45 hours. Between each measurement, the plate was shaken and heated as described above.
# The measurement data points were saved in Microsoft Excel format for further processing and curve drawing and fitting was performed using Graph Pad Prism. […] The data points are typically a mean of four samples. Only data obtained in the same experiment (i.e. samples on the same plate) are presented in the same graph ensuring a relative measure of fibrillation between the individual samples of one assay rather then comparison between different assays. The data set may be fitted to Eq. (1). However since the full sigmoidal curves are not usually achieved during the measurement time, the degree of fibrillation is expressed as ThT fluorescence at various time points calculated as the mean of the four samples and shown with the standard deviation
# Primary rat adipocytes = assay: Lipogenesis in rat adipocytes; format: cell-based; conditions: relative potency vs human insulin
# Source text: As a measure of in vitro potency of the insulins of the invention, lipogenesis can be used.
# The labelled glucose is converted into extractable lipids in a dose dependent way, resulting in full dose response curves.
# T1 sequence (P06213 28-746 isoform P06213-2 limits assumed): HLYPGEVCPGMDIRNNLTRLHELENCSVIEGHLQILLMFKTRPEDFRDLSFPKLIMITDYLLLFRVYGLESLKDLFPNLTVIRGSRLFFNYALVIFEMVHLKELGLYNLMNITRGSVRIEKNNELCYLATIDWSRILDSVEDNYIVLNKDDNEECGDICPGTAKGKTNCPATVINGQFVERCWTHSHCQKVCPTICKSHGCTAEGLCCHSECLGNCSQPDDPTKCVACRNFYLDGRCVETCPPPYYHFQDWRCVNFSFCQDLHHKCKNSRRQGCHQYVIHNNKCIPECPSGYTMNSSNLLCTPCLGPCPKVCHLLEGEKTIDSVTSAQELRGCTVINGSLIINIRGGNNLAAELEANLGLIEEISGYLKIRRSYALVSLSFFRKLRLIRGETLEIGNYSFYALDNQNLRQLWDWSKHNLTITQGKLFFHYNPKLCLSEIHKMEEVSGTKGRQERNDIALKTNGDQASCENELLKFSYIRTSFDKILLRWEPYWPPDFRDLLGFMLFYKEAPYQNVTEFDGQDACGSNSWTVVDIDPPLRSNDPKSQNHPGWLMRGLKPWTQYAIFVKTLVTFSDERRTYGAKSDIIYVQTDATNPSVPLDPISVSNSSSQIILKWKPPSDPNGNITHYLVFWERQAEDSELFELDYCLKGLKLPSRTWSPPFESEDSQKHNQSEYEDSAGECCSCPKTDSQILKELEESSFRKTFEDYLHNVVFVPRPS
# T1 sequence (P06213 763-1382 partner limits assumed): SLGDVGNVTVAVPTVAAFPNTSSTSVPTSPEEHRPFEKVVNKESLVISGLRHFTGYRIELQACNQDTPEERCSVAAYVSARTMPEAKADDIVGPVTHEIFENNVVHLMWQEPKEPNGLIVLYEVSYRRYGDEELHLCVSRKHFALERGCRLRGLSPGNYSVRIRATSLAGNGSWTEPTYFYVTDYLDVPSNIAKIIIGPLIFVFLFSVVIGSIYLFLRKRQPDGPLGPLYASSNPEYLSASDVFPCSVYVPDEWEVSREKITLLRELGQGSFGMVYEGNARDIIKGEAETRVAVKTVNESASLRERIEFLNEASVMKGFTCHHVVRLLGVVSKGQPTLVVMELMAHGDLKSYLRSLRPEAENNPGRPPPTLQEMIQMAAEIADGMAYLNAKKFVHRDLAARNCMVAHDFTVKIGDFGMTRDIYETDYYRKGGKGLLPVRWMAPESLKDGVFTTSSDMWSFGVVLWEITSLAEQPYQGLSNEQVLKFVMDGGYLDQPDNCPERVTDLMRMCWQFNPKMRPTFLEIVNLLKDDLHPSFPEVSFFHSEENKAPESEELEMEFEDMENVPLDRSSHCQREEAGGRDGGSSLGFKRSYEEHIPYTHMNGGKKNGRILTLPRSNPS
Substance,Relative IR-A affinity (@ […] HSA) (%)e (human insulin receptor [1]) [%],Relative IR-A affinity (@ 0% HSA) (%) (human insulin receptor [2]),Hydrophobicity rel. to human insulin [3],"Stability towards duodenum lumen enzymes (fold relative to A14E, B25H, desB30 human insulin) (duodenum lumen enzymes) [fold]","Chemical degradation (%) (4 weeks 37° C.- 0 weeks 5° C.) ([4]; pH 7.5, RP-HPLC)",HMWP Formation (%) (4 weeks 37° C.- 0 weeks 5° C.) [4],ThT 0 h [5],ThT 5 h [5],ThT 10 h [5],ThT 30 h [5],ThT 40 h [5],Lipogenesis in rat adipocytres (@ 0.1% HSA) rel. to human insulin (%) (Primary rat adipocytes)
"I: NMe2Phe-VCQHLCGSHLVEALHLVCGERGFHYTPK([AEEA-AEEA-γGlu-C20 diacid]) / II: Me2Gly-IVEQCCTSCCSLEQLENYCN (disulfide I:2-II:9, I:6-II:6, I:18-II:19, II:5-II:10) [Example 28, A1(N^α,N^α-Dimethyl), A10C, A14E, B1(N^α,N^α-dimethyl), B3C, B16H, B25H, B29K(N^εeicosanedioyl-gGlu-2×OEG), desB30 Human Insulin]",0.01,0.1,0.298,1.6,,,,,,,,
"I: NMe2Phe-VCQHLCGSHLVEALYLVCGERGFHYPK([AEEA-AEEA-γGlu-C18 diacid]) / II: Me2Gly-IVEQCCTSCCSLEQLENYCN (disulfide I:2-II:9, I:6-II:6, I:18-II:19, II:5-II:10) [Example 11, A1(N^α,N^α-Dimethyl), A10C, A14E, B1(N^α,N^α-dimethyl), B3C, B25H, desB27, B29K(N^εoctadecanedioyl-gGlu-2×OEG), desB30 Human Insulin]",0.04,0.6,0.095,,3.2,−0.2,31 ± 0.4,23 ± 0.4,23 ± 0.6,21 ± 0.2,21 ± 0.3,
"I: NMe2Phe-VCQHLCGSHLVEALYLVCGERGFHYTPK([AEEA-AEEA-γGlu-C20 diacid]) / II: Me2Gly-IVEQCCTSCCSLEQLENYCN (disulfide I:2-II:9, I:6-II:6, I:18-II:19, II:5-II:10) [Example 2, A1(N^α,N^α-Dimethyl), A10C, A14E, B1(N^α,N^α-dimethyl), B3C, B25H, B29K(N^εeicosanedioyl-gGlu-2×OEG), desB30 Human Insulin]",,,0.38,,,0.0,35 ± 0.9,22 ± 0.4,22 ± 0.3,20 ± 0.3,19 ± 0.3,0.025
"I: {Phe(Nα-CONH2)}-VCQHLCGSHLVEALYLVCGERGFFYPK([AEEA-AEEA-γGlu-C18 diacid]) / II: Hydantoyl-IVEQCCTSCCSLEQLENYCN (disulfide I:2-II:9, I:6-II:6, I:18-II:19, II:5-II:10) [Example 33, A1(N^α-Carbamoyl), A10C, A14E, B1(N^α-carbamoyl), B3C, desB27, B29K(N^εoctadecanedioyl-gGlu-2×OEG), desB30 Human Insulin]",,0.6,,1.6,,,,,,,,
"I: {Phe(Nα-CONH2)}-VCQHLCGSHLVEALYLVCGERGFHYPK([AEEA-AEEA-γGlu-C20 diacid]) / II: Hydantoyl-IVEQCCTSCCSLEQLENYCN (disulfide I:2-II:9, I:6-II:6, I:18-II:19, II:5-II:10) [Example 46, A1(N^α-Carbamoyl), A10C, A14E, B1(N^α-carbamoyl), B3C, B25H, desB27, B29K(N^εeicosanedioyl-gGlu-2×OEG), desB30 Human Insulin]",0.01,0.1,0.132,1.2,,,,,,,,
"I: {Phe(Nα-CONH2)}-VCQHLCGSHLVEALYLVCGERGFHYPK([γGlu-C18 diacid]) / II: Hydantoyl-IVEQCCTSCCSLEQLENYCN (disulfide I:2-II:9, I:6-II:6, I:18-II:19, II:5-II:10) [Example 34, A1(N^αCarbamoyl), A10C, A14E, B1(N^αcarbamoyl), B3C, B25H, desB27, B29K(N^εoctadecanedioyl-gGlu), desB30 Human Insulin]",0.00,0.1,,1.8,,,20 ± 0.1,13 ± 0.7,13 ± 0.8,13 ± 0.4,13 ± 0.3,
